We go through 5 molecules from US9458427B2, “IFNγR2 compositions and methods of inhibiting neuronal cell death” (Case Western Reserve University, priority 2009, dated 2016).

The target of series [1] is T1, Bax (Homo sapiens, UniProt Q07812). As to the kind of experiment: Apoptosis induced by Bax overexpression in HEK293 cells (Hoechst nuclear staining). The format is cell-based. Details: expressed in transfected cells; host or cells: HEK293. As to conditions: HEK293 cells co-transfected with pcDNA3-h Bax and pEGFP-C2-IFNγR2 construct, 24 h after transfection. The protocol:
(§1) Cells were cultured overnight in DMEM supplemented with 10% FBS. The transfections were performed using […]® (Qiagen, Valencia, Calif.) in accordance with the manufacturer's instructions. Transfection efficiency was analyzed by the expression of the EGFP-tagged proteins.
(§2) Apoptosis was induced by transfecting the cells with pcDNA3-human Bax, or pcDNA3-human Bak, or pcDNA3-human Bim EL, or by treatment with etoposide (10 μM) or staurosporine (100 nM). To determine the induction of apoptosis by different apoptotic stresses, cells were stained with Hoechst 33258 dye, and the numbers of cells with apoptotic nuclei were counted using fluorescence microscopy. Three hundred cells were analyzed in triplicate samples. […] Caspase activity were measured by using a fluorogenic caspase 3 substrate II (Calbiochem), IFNγR2 constructs were cloned in pEGFP-C2 (IFNγR2wild type, IFNγR21-295 and IFNγR2296-337) vector.
(§3) For Bax, Bak or Bim EL overexpression, cells were transfected with either 1 μg pcDNA3-human Bax, 1 μg pcDNA3-human Bak, or 1 μg pcDNA3 human Bim EL, and 4 μg of pEGFP plasmid encoding IFNγR2, and the apoptosis or caspase activity was determined 24 h after the transfection.

For series [2], the system named is HT1080 (IFNγR2 null mutant and JAK2 null mutant) cells. The experiment in a line: Etoposide-induced apoptosis in HT1080-derived IFNγR2 null and Jak2 null cells (Hoechst nuclear staining). The series is classed as cell-based, human. As to conditions: cells lacking IFNγR2 and Jak2, 10 μM etoposide for 24 h. The procedure:
HT1080 (wild type, IFNγR2 null mutant and JAK2 null mutant) cells were cultured in Dulbecco's Modified Eagle's Medium (DMEM) supplemented with 10% fetal bovine serum (FBS). HeLa, Human Embryonic Kidney (HEK) 293 and HEK293T cells were purchased from ATCC, and cultured in DMEM supplemented with 10% FBS. LNCap and PC3 cells were purchased from ATCC and cultured in DMEM F12 medium supplemented with 10% FBS. RWPE1 and RWPE2 were purchased from ATCC and cultured in keratinocytes-SFM plus supplements medium (Gibco). Primary mammary epithelial (4A100) cultures were derived from organoids isolated from discarded mammary tissue acquired from patients undergoing reduction mammoplasty surgery. Anonymized specimens were acquired from patients who had given written consent, through the Tissue Procurement and Histology Core Facility of the Case Comprehensive Cancer Center (Case), under a Case CCC IRB approved protocol. Primary epithelial cultures were grown in M87A+X medium. Human HME1 cells (Clontech) were grown in medium 171 with mammary epithelial growth supplement (Cascade Biologics) and penicillin-streptomycin.42 Human breast cancer cell line MDA-MD468 was cultured in RPMI, 5% FBS, supplemented with L-glutamine, penicillin-streptomycin and fungizone (Gibco). […]
Cells were cultured overnight in DMEM supplemented with 10% FBS. […] Transfection efficiency was analyzed by the expression of the EGFP-tagged proteins.
as §2

The target in series [3] is T1, Bax. As to the kind of experiment: Staurosporine-induced Bax activation in HeLa cells (6A7 antibody immunostaining). The series is classed as cell-based. More on the design: endogenous in cells; host or cells: HeLa. As to conditions: staurosporine 100 nM, 3 h. The protocol:
HeLa cells were transiently transfected with pEGFP-C2-IFNγR2 (wild type 1-295, or 296-337) using […]® (Qiagen, Valencia, Calif.) in accordance with the manufacturer's instructions. Four micograms of the plasmid were used to transfect cells cultured in 6-cm diameter dishes. After 24 h of transfection, the cells were treated with staurosporine (100 nM) for 3 h. Then, the cells were washed with phosphate buffer pH 7.4 (PBS), fixed using paraformaldehyde (1%), permeabilized with Triton X-100 (0.02%), blocked with goat serum, and the activation of Bax was analyzed by immunocytochemistry using monoclonal Bax 6A7 antibody (BDPharmingen) and ALEXA FLUOR® 568-labeled anti-mouse IgG secondary antibody (Invitrogen).

Another series concerns human Bim EL. As to the kind of experiment: Apoptosis induced by Bim overexpression in HEK293T cells. As to conditions: 24 h after transfection. The series is classed as cell-based. The protocol: as §1, §2, §3
Series [4] relates to hippocampal slice cultures. The experiment in a line: Cell permeability of FITC-tagged peptides in hippocampal slice cultures. The series is classed as cell-based, mouse. As to conditions: after 24-h treatment. The text has this: In this study, in addition to utilizing Bax knockout (KO) mice, we utilized BIP to examine the role of Bax in oligomeric Aβ-induced neurotoxicity. BIP used in this study consists of five amino acids, VPTLK, a sequence that is known to inhibit Bax activation. […] Both peptides were tagged with fluorescein isothiocyanate (FITC) so that intracellular delivery can be tracked by FITC signal.

For series [5], the system named is organotypic hippocampal slice cultures. As to the kind of experiment: Neuronal cell death in organotypic hippocampal slice cultures (PI uptake, Nissl staining). The series is classed as cell-based. As to conditions: for Suppression of oligomeric Aβ-induced neuronal loss (Nissl staining): peptide co-applied with oligomeric Aβ; for Prevention of oligomeric Aβ-induced PI uptake: peptide co-applied with oligomeric Aβ (500 nM), after 24-h treatment. The procedure: (§4) Organotypic hippocampal slice cultures were prepared as described previously. Briefly, hippocampal slice cultures were prepared using 7-10-day-old mouse pups. Slices were cut at 400 μm on a Mcllwain tissue chopper, transferred to Millicell membrane inserts ([…]; Millipore), and placed in 6-well culture plates. The culture medium consisted of basal Eagle's medium with Earle's balanced salt solution, 20% heat-inactivated horse serum, enriched with 5.6 mM glucose. The medium was changed every other day. The effect of oligomeric Ab (500 nM) was tested in the slices that had been maintained for 11-14 days in vitro. Aβ oligomer or reversed sequence of Aβ1-42 control peptide (Aβ42-1) was added to cultures in serum-free medium and, after the treatment, the hippocampal slices were rinsed twice in ice-cold phosphate-buffered saline (PBS), and then harvested by removing the Millicell membrane insert.
To determine neuronal cell death in the hippocampal slices, PI (5 μg/ml) was added to the slice culture medium. Images were acquired through an AxioCam camera on an Axiovert 200M microscope (Zeiss, Oberkochen, Germany). Fluorescent intensity was measured using Image J (NIH, Bethesda, Md., USA). Hematoxylin and eosin (H&E) and Niss1 staining was also performed for routine histochemical and morphological analyses.

In series [6] the target is T2, Bax (Mus musculus, UniProt Q07813).
T2 construct: from tissue; host or cells: mouse hippocampal slice culture
T2 sequence (Q07813 whole entry): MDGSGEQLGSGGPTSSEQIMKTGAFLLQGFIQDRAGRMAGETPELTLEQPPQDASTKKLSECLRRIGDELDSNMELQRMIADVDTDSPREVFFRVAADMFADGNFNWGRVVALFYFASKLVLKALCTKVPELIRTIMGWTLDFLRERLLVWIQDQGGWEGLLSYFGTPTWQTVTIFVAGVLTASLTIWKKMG
As to the kind of experiment: Immunocytochemistry with 6A7 antibody (active Bax) in hippocampal slice cultures. The series is classed as cell-based. The protocol: as §4
Cultured hippocampal slices were rinsed with icecold PBS once and fixed for 2 h with 4% paraformaldehayde in 0.1M PBS. After washing with PBS, sections were permeabilized overnight with PBS containing 0.2% Triton X-100. At the end of the permeabilization blocking solution, 10% normal goat serum in PBS was applied for 4 h at room temperature. After washing with PBS, primary antibody was added and incubated for 24-48 h at 4° C. […] Images were then analyzed with the Axiovision software (Zeiss).

Series [7] deals with Bim, Bcl-2, Bax, caspase-3. The experiment in a line: Western blot analysis of Bim, Bcl-2, Bax and cleaved caspase-3 in hippocampal slice cultures. The format is cell-based, mouse. The protocol: as §4
The protein concentration was determined by BCA assay (Pierce, Rockford, Ill., USA). The extracted proteins were separated on 10 or 12% SDS-polyacrylamide gel and transferred onto polyvinylidene difluoride membranes. The blots were blocked with 10% non-fat milk in TBS-T for 1 h at room temperature, and then treated with primary antibodies diluted with 1% non-fat milk and incubated overnight at 4° C. The following antibodies were used for western blot analysis: anti-caspase-3 (1:1000; Santa Cruz Biotechnology, Santa Cruz, Calif., USA), anti-Bim (1:1000; Stressgen, Farmingdale, N.Y., USA), anti-Bcl-2 (1:1000; Stressgen) and 6A7 (conformational specific Bax antibody) (1:1000; BD Pharmingen, San Diego, Calif., USA).

For series [8], the system named is C57BL6/J mice hippocampus. As to the kind of experiment: Intrahippocampal injection of oligomeric Aβ in mice. The series is classed as in vivo, mouse. The protocol:
C57BL6/J mice (The Jackson Laboratories; 2-3-month-old) were anesthetized with pentobarbital and placed in a stereotaxic frame. Injection was made using a 10-μl microsyringe (Hamilton, Reno, Nev., USA). […] Control animals were prepared identically and injected with the same volume and concentration of Aβ42-1 in PBS. Injections were made at stereotaxic coordinates from bregma; antereoposterior (AP)=2.3 mm, mediolateral (ML)=2.5 mm and doroventral (DV)=−2.5 mm according to a previous report. This corresponds to a site in the dorsal hippocampus in the apical dendritic zones of the CA1 region near the hippocampal fissure. Mice were killed 10 or 20 days after injection, brains dissected out, fixed in 10% buffered-formalin and paraffin-embedded. For brain tissue sections, 6-μm-thick serial sections were cut, mounted onto slides and rehydrated according to standard protocols.
Cultured hippocampal slices were rinsed with icecold PBS once and fixed for 2 h with 4% paraformaldehayde in 0.1M PBS. After washing with PBS, sections were permeabilized overnight with PBS containing 0.2% Triton X-100. At the end of the permeabilization blocking solution, 10% normal goat serum in PBS was applied for 4 h at room temperature. After washing with PBS, primary antibody was added and incubated for 24-48 h at 4° C. After thorough washing of the sections in PBS, a secondary antibody labeled with either Alexa Fluor (Life Technologies, Grand Island, N.Y., USA) 488 or 568 (1:300) was added and incubated for 4 h at room temperature. All of the experiments contained at least one sample incubated without a primary antibody to exclude non-specific signal. Nuclei were visualized with DAPI. Images were acquired through an AxioCam camera on an Axiovert 200M microscope (Zeiss). Images were then analyzed with the Axiovision software (Zeiss).
Detection of 3′-OH termini of DNA strand breaks was performed using in situ cell death detection kit (Roche). Briefly, the tissue sections were treated with proteinase K (20 μg/ml in 10 mmol/l Tris-HCl, pH 7.4) for 30 min at 37° C. after rehydration. After rinsing with PBS, TUNEL reaction mixture containing terminal deoxynucleotidyl transferase and fluorescence-labeled nucleotide was applied for 1 h 37° C. The samples were then washed and mounted using Aquamount (Southern Biotech, Birmingham, Ala., USA).

Ends that are not written are not given here.

T1 sequence (Q07812 whole entry): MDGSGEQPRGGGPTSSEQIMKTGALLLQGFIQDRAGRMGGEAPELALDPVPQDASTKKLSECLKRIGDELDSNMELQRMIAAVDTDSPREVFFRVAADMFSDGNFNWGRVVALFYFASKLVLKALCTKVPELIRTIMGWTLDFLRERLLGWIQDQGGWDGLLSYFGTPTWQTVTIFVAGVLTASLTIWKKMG

In the case of “IFNγR2296-337: mutant encoding amino acids 296-337 of IFNγR2, lacking the Jak2-binding domain; expressed as EGFP fusion (KDPTQPILEALDKDSSPKDDVWDSVSIISFPEKEQEDVLQTL; also: EGFP fusion; listed as Homo sapiens)”, the “Inhibition of apoptosis induced by Bax overexpression” value with Bax [1] is “able to inhibit apoptosis induced by Bax overexpression”. Further, in series [2], the “Inhibition of etoposide-induced apoptosis” value is reported as “able to inhibit etoposide-induced apoptosis”. Further, in the series with Bax [3], the “Inhibition of STS-induced Bax activation (6A7 Ab-positive cells in GFP-positive cells)” value is “inhibited STS-induced Bax activation”. Further, in the series with human Bim EL, the “Inhibition of apoptosis induced by Bim overexpression” value is “able to inhibit apoptosis induced by Bim overexpression”.

As for KLVPT [control peptide], the “Cell permeability (green fluorescence of FITC-tagged peptide in neuronal cells)” value in series [4] is on record as “equally penetrated neuronal cells”. In series [5], the “Suppression of oligomeric Aβ-induced neuronal loss (Nissl staining)” value is “failed to prevent neuronal cell death” and the “Prevention of oligomeric Aβ-induced PI uptake” value is given as “did not affect the level of PI uptake”.

Regarding “VPTLK (also: FITC tag, site not given here) [BIP]”, in the series with Bax [6] (slices treated with oligomeric Aβ for 48 h), the “Suppression of oligomeric Aβ-induced conformational change of Bax (6A7)” value is on record as “suppresses oligomeric Aβ-induced conformational change of Bax”. In series [4], the “Cell permeability (green fluorescence of FITC-tagged peptide in neuronal cells)” value was “equally penetrated neuronal cells”. In addition, the “Suppression of oligomeric Aβ-induced caspase-3 activation (immunoblot)” value in series [7] (peptide co-applied with oligomeric Aβ) is recorded as “significantly suppressed”. In [5], the “Suppression of oligomeric Aβ-induced neuronal loss (Nissl staining)” value is recorded as “significantly suppressed” and the “Prevention of oligomeric Aβ-induced PI uptake” value is “significantly prevented PI uptake”.

For the molecule “oligomeric Aβ: soluble oligomeric Aβ prepared from synthetic Aβ1-42 peptide (AnaSpec)”, the “Number of 6A7-positive cells (active form of Bax)” value with Bax [6] (slice cultures, 24 h after treatment) is reported as “significantly increased”. The “Level of Bax” value in series [7] (oligomeric Aβ-treated brain slices) is recorded as “not affected”. The “Expression of Bim” value in series [7] (oligomeric Aβ-treated brain slices, time-dependent) is listed as “increased the expression of Bim”. For the same molecule, the “Neuronal cell death induced by oligomeric Aβ in slice culture from bax−/− mice” value in series [5] (bax−/− versus wild-type slices, 500 nM, 48 h) is reported as “dramatically reduced”. Moreover, the “PI uptake / number of PI-positive cells (neuronal cell death)” value in series [5] (wild-type slices, 500 nM, 48 h of treatment) is reported as “significantly increased”. In series [8] (10 days after injection), the “Level of Bim in hippocampus” value is given as “dramatically increased” and the “Number of neurons containing the active form of Bax (6A7 antibody)” value is recorded as “dramatically increased”. Besides, the “Neuronal cell death in hippocampus” value in [8] (WT mouse, 20 days after intrahippocampal injection) was “induced neuronal cell death”. Further, the “Number of TUNEL-positive neurons” value in [8] (intrahippocampal injection) was “significantly increased”.

B1: IFNγR21-295: mutant encoding amino acids 1-295 of IFNγR2, retaining Jak2-binding domain but not the C-terminal 41 amino acids (protein)
chain: APPDPLSQLPAPQHPKIRLYNAEQVLSWEPVALSNSTRPVVYQVQFKYTDSKWFTADIMSIGVNCTQITATECDFTAASPSAGFPMDFNVTLRLRAELGALHSAWVTMPWFQHYRNVTVGPPENIEVTPGEGSLIIRFSSPFDIADTSTAFFCYYVHYWEKGGIQQVKGPFRSNSISLDNLKPSRVYCLQVQAQLLWNKSNIFRVGHLSNISCYETMADASTELQQVILISVGTFSLLSVLAGACFFLVLKYRGLIKYWFHTPPSIPLQIEEYL
modifications: left off: large carriers
For the molecule B1, in the series with Bax [1], the “Inhibition of apoptosis induced by Bax overexpression” value was “could not protect cells from Bax”. Also, the “Inhibition of etoposide-induced apoptosis” value in series [2] is listed as “could not”. In addition, the “Inhibition of STS-induced Bax activation (6A7 Ab-positive cells in GFP-positive cells)” value in the series with Bax [3] was “did not inhibit Bax activation”.
